Tested on: MS2 coat protein
Experiment: apparent KD of MS2 coat protein; designed switch direction (-1 OFF switch, 1 ON switch): -1; higher = weaker reporter binding
In short: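 On Illumina chips, designed RNA switches with common flanks were made by stalled E. coli RNA polymerase. Titrations with SNAP-549-labelled MS2 coat protein, doubling from 0.7 or 1.5 nM to 3 µM, were done with no input, with 200 uM small-molecule ligand, or with an oligonucleotide input. Apparent KD is the median per design over clusters, from curve fits of normalised cluster fluorescence.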

[1] = input ligand: microRNA oligo, concentration not stated
[2] = Eterna round: R95, input ligand: microRNA oligo, concentration not stated
[3] = Eterna round: R95, input ligand: FMN 200 uM
[4] = Eterna round: R95, input ligand: none

Sequence	apparent KD of MS2 coat protein (input ligand: FMN 200 uM)	apparent KD of MS2 coat protein [1]	apparent KD of MS2 coat protein (input ligand: none)	apparent KD of MS2 coat protein [2]	apparent KD of MS2 coat protein [3]	apparent KD of MS2 coat protein [4]
UAGAUGGGAGGAUAUACGUAGAUGCAGGUUCGUGUGGUGCUACAUGAGGAUCACCCAUGUAGAAGGCCCGUCUU [JL-ex2-2.29 Mayanne mod] (Eterna round: R96, puzzle: Exclusion 2)	69.4 nM	14.1 nM	18.4 nM			
GCGGACUAGAUCGUGAGAUCAGAGACAUGAGGAUCACCCAUGUAGGAUAUCGAUUCGAAACGAAUCGAGAAGGGCAUAGUCCGC [JL denovo 7] (Eterna round: R96, puzzle: Exclusion NG 3)	17.1 nM	14.8 nM	15.9 nM			
UACAUGAGGAUCACCCAUGUUUUGUCGUGUAUGGUAUUUAUCUAGGAUAUCAAUUUGUGUAUUUAUGAGAAGGAGAAUAUUAAU [JMF's solution 68] (Eterna round: R96, puzzle: Exclusion NG 3)	44 nM	29.5 nM	45.8 nM			
CAGUUUUGAGUGAGGAUAUGUGAUCCAAAGGGUCAACAGAAGGCACAUGAGGAUCACCCAUGUAAUCCAAUUGG [Eternabot (L2) Solution 37] (Eterna round: R97, puzzle: Brourd's mod of Exclusion 4)	1520 nM		3760 nM			
GGUUCGUGAGGAUAUGUGGCUUCGAUCGUGCGAAGAAGGCUACAGAAGGCACAUGAGGAUCACCCAUGUUCGUC [salish99_ex4_r4_228] (Eterna round: R97, puzzle: Exclusion 4)	241 nM		62.1 nM			
AGUAACAGAGGAUAUACUAUUUUAUGUGUUUGUUAUUUUAAACAUGAGGAUCACCCAUGUAGAAGGCUGAAUGA [JMF 100] (puzzle: Exclusion 2)				23.5 nM		
GGAAAACAUGAGGAUCACCCAUGUGAGGAUAUGCGUACGUUGUCCGUAGGCGACGUGCGCAGAAGGCGCAAGAG [Mat - Mod of JL D89] (puzzle: Exclusion 1)				48.5 nM	57.4 nM	58.1 nM
AAUUAGCAAGCGAGAUCCCACAUGAGGAUCACCCAUGUGCUCGUCUUAUAAAAGACUGUGACGAUAGUCACGGUCAC [Mat - Sensor, turn-off var - Eli Mod - D25] (Eterna round: R97, puzzle: Sensor, turn-off variant 1)	15.3 nM		12.3 nM			
GGCGACCACCUCGUGCACUACAUGAGGAUCACCCAUGUUUUUCGCUCGUCUUAUGCGCCAACCUCCCAAACACUAAG [Gelaesxe] (puzzle: Sensor v3, turn-off variant 1)				103 nM	34.6 nM	35.4 nM
GGAGAGUCAGGAUAUCGAAGGUAGUGGAGAGGAGUGUGGUACGAGAAGGGACAUGAGGAUCACCCAUGUAGGUG [JR_Exclusion4)Sub010] (puzzle: Exclusion 4)				423 nM	306 nM	478 nM
AACGACUGAGGAUAUACAUGAGGAUCACCCAUGUGUUGAAAUACGUGCUUGGUUAACUGUAGAAGGCAGAAAAU [Isxeen] (puzzle: Exclusion 3)				12.8 nM	21.9 nM	14 nM
GUCGUGCGGCUUUGCUGUACGAGUACAUGAGGAUCACCCAUGUAGGAUAUGGUACGCUUUGCGUGCCAGAAGGGCGUGCGUUGG [salish99_ExNG3_r04_006] (Eterna round: R96, puzzle: Exclusion NG 3)	33.3 nM	23.9 nM	29.9 nM			
CCGUGGCAAGGAUAUACAGAGGAGAGGAAGGCAAGAGGUGGACAUGAGGAUCACCCAUGUAGAAGGUGCAGAGC [JR_Exclu2_Sub026] (puzzle: Exclusion 2)				124 nM	130 nM	160 nM
GGCCUGUUAGGAUAUUAGUAGUAGUCAGAAAAGACUAUUACUGAGAAGGAACAUGAGGAUCACCCAUGUUGGCC [Mat - Exclusion 4 - Eli Mod - D39] (Eterna round: R97, puzzle: Exclusion 4)	17.2 nM		17.4 nM			
AAGAAACAUGAGGAUCACCCAUGUGAGGAUAUGAUCAAGAAAAGAAAAGAAAGAAGACUCAGAAGGCACAAAGG [salish99-ex1_r3_071] (puzzle: Exclusion 1)				210 nM	162 nM	548 nM
ACAUGAGGAUCACCCAUGUCCGGCUGGUCCGUCUCGGCUGUCGAGGAUAUGGCUCGGUGUCCGCGCUAGAAGGUGGGAGCCGGC [Aenatbe mod 73] (Eterna round: R96, puzzle: Exclusion NG 3)	332 nM	127 nM	266 nM			
CGCCUACAUGAGGAUCACCCAUGUGAGGAUAUCCUGCGAGGAUCAAAAGAUCCUCGUGGGAGAAGGCGCUUGGA [Omei Ex1 B7] (Eterna round: R97, puzzle: Exclusion 1)	18.7 nM		19.4 nM			
AUUAAACAUGUAGGAUAUGCAUAGCAAAGCUAUGCAGAAGGACAUGAGGAUCACCCAUGUAAAAGCGUCUGAGUACAGAUGCAA [Mat - Exclusion NG 1 - Mod of JL - D89] (Eterna round: R96, puzzle: Exclusion NG 1)	402 nM	53.2 nM	57 nM			
ACAUGAGGAUCACCCAUGUCCGGCUGGUCCGUCUCGGCUGUCGAGGAUAUAGCUCGGUGUCCGCGCUAGAAGGUGGGAGCCGGC [Aenatbe mod 72] (Eterna round: R96, puzzle: Exclusion NG 3)	212 nM	134 nM	217 nM			
AACUCACAUGAGGAUCACCCAUGUGAGGAUAUGAUACUAUGUACUUCGGUACAUAGUAUCAGAAGGCAUGUGGG [Ex1-3: 94] (puzzle: Exclusion 1)				49.7 nM		
CAGAAUUGAGGAUAUGAUCAAUUUAACAUGAGGAUCACCCAUGUAUGGGAAUGAUUCUGAUCAGAAGGCGAUUCUU [Exclusion 5: 1:a] (Eterna round: R96, puzzle: Exclusion 5)	960 nM	511 nM	633 nM			
CUGAUGUCAGGAUAUCAGAAAAGGCGCAAGGACACGCCAAAUGAGAAGGGACAUGAGGAUCACCCAUGUAAAAC [Orata] (puzzle: Exclusion 4)				20.8 nM	107 nM	18.1 nM
UUUUAACAUGAGGAUCACCCAUGUGAGGAUAUCGAAAUUUAUAUUAAUAUUAUUAAUACGAGAAGGCACAUUUU [JMF 38] (puzzle: Exclusion 1)				36.2 nM		
ACGAAAGCAAACAGGUGAAACAUGAGGAUCACCCAUGUCCUCAUUUGCUCGUCUUAUAAGCUAUGCGAAAGCAUAGC [Mat - Sensor v3 - turn-off var 1 - Eli Mod - D53] (puzzle: Sensor v3, turn-off variant 1)				1270 nM	60.4 nM	72.4 nM
ACUUGUAGAGGAUAUACGAGGGCCCAAGCGGCGAGAGCCGCACAUGAGGAUCACCCAUGUAGAAGGCUACUAUU [JL-ex2-4.25 ViennaUCT mod] (Eterna round: R97, puzzle: Exclusion 2)	374 nM		116 nM			
UAUAAUUUUUUUUUUUUACAAGCUUUUUGCUCGUCUUAUACAUGAGGAUCACCCAUGUGGGUGAAAGAUAGAUUGUC [JMF's solution 2] (puzzle: Sensor v3, turn-off variant 2)				15.5 nM	37.7 nM	41.2 nM
GGUUGGCGAGGAUAUACAUGAGGAUCACCCAUGUGAGAUAAAAAAGUGAGGAAGAAAAGUAGAAGGCGCUGACG [salish99_ex3_r3_010] (puzzle: Exclusion 3)				71.5 nM	1140 nM	85.1 nM
GGCGGUGCAGGAUAUUGAAAACUACACAUGAGGAUCACCCAUGUUCCUCACCGGUACAAGCAAGAAGGGCGGUGCA [Erxegetiis] (puzzle: Exclusion 5)				19.4 nM	18.9 nM	18.3 nM
GACCAACGGGUUUACCUUUACAUGAGGAUCACCCAUGUCGCAAGCUUUUUCUCGGGUCCAAUCUUAUAAAUAUUAAU [Legedi] (puzzle: Sensor v3, turn-off variant 1)				314 nM	144 nM	179 nM
GUAUCCGAGAAGGAUAUCAAUGGCCCGGACCACUGAGAAGGUCUCACAUGAGGAUCACCCAUGUCACAGGUGCA [Eternabot (Original) Solution 29] (Eterna round: R97, puzzle: Exclusion 6)	74.1 nM		70.3 nM			

Reference: the supplement of paper PMC9170038
